In patent publication US20060148016A1:

Target: Alexa Fluor 594 labelled calmodulin (Molecular Probes)
Assay: gel filtration assay (Example 3): Alexa Fluor 594 labelled calmodulin eluting with the particles; reference is ferritin particles without binding molecule

## Ferritin based particles expressing cbp on their surface (CBP-Human ferritin light chain fusion protein, plasmid pCBPHFI) (from UniProt P02792 2-175) (peptide)
  fold signal as compared to particles produced with pET-26(+)rHuLFt: 4.1 fold
